Results on 50 sequences are retold here after the supplement of paper PMC10724198.

± gives the standard deviation of the averaged measurements.

The test system of the data set is Saccharomyces cerevisiae. The data set can be described thus: protein stability index of tFT-peptide fusion (C-terminal peptide) (PSI (0-1 scale)); higher = more stable (slower turnover). Particulars: temperature: 30 C. As to the method: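 MPS profiling in S. cerevisiae of the yeast C-terminome library: the last 12 aa of each annotated ORF are fused to the C-terminus of a sfGFP-mCherry timer, after a GGGS linker. Cells are FACS-sorted into 8 mCherry/sfGFP bins and deep-sequenced. PSI runs from 0 (unstable) to 1 (stable); wild type and das1Δ backgrounds, two technical replicates each.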

The mark [1] stands for this setting: genetic background: das1 deletion.

For KHKNILFFNHNT [YJR162C C-terminal 12 aa], the protein stability index reads like this: under setting [1], 0.725 ± 0.015; (genetic background: wild type) 0.199 ± 0.0036.

With “KHKNILSFNDNT [YER188C-A C-terminal 12 aa]”, the protein stability index under setting [1] came out at 0.731 ± 0.015 and the protein stability index (genetic background: wild type) was found to be 0.747 ± 0.068.

With KHKQYFWKRPTK [PLM2 C-terminal 12 aa], the protein stability index runs as follows: under setting [1], 0.714 ± 0.015; (genetic background: wild type) 0.692 ± 0.019.

Take KHVGKGCGYSYH [STP4 C-terminal 12 aa]: the protein stability index amounted to 0.696 ± 0.024 under setting [1] and 0.6985 ± 0.0052 (genetic background: wild type).

With KILDEINLDRIK [HEM3 C-terminal 12 aa], the protein stability index under setting [1] was found to be 0.689 ± 0.0094 and the protein stability index (genetic background: wild type) turned out to be 0.681 ± 0.052.

Regarding KILTQHLQDLQS [RKM2 C-terminal 12 aa], the protein stability index is, setting by setting: under setting [1], 0.6934 ± 0.0063; (genetic background: wild type) 0.714 ± 0.077.

On to KIQWDIDPQLDG [SSY5 C-terminal 12 aa], for which the protein stability index under setting [1] stood at 0.743 ± 0.033 and the protein stability index (genetic background: wild type) came out at 0.723 ± 0.082.

Regarding KIVSGLVRTNSS [YIL060W C-terminal 12 aa], the protein stability index is, setting by setting: under setting [1], 0.703 ± 0.019; (genetic background: wild type) 0.717 ± 0.024.

KKARKMPTWVKR [MRPS9 C-terminal 12 aa]: the protein stability index reads like this: under setting [1], 0.693 ± 0.032; (genetic background: wild type) 0.65752 ± 7.3e-05.

For KKKLVKKTKSKK [RIO1 C-terminal 12 aa], the protein stability index under setting [1] came to 0.739 ± 0.01 and the protein stability index (genetic background: wild type) is 0.705 ± 0.081.

As for KKKQNDGKSLRS [DBP8 C-terminal 12 aa], the protein stability index is 0.687 ± 0.013 under setting [1] and 0.732 ± 0.0081 (genetic background: wild type).

Take KLAKPAPTSKLD [TDA4 C-terminal 12 aa]: the protein stability index worked out at 0.6901 ± 0.0021 under setting [1] and 0.692 ± 0.025 (genetic background: wild type).

In turn, KLIHIPIRYVIV [SSS1 C-terminal 12 aa] gave a protein stability index under setting [1] of 0.424 ± 0.03 and a protein stability index (genetic background: wild type) of 0.3647 ± 0.00092.

On to KLQPQVYKPWSL [RSC8 C-terminal 12 aa], for which the protein stability index worked out at 0.6842 ± 0.0019 under setting [1] and 0.703 ± 0.0092 (genetic background: wild type).

On to KNHDFKDCADIF [SWH1 C-terminal 12 aa], for which the protein stability index runs as follows: under setting [1], 0.721 ± 0.017; (genetic background: wild type) 0.688 ± 0.043.

KNIPEKFKNGIF [SSP120 C-terminal 12 aa]: the protein stability index stood at 0.729 ± 0.036 under setting [1] and 0.647 ± 0.0098 (genetic background: wild type).

As for KNLQNELEKNNA [RTN1 C-terminal 12 aa], the protein stability index is, setting by setting: under setting [1], 0.6887 ± 0.0022; (genetic background: wild type) 0.6647 ± 0.0021.

As to KNLTRTSVSFIG [TRS85 C-terminal 12 aa], the protein stability index under setting [1] is 0.7307 ± 0.0033 and the protein stability index (genetic background: wild type) came out at 0.702 ± 0.037.

In turn, KNSNLSPTQIEL [SSK1 C-terminal 12 aa] showed a protein stability index under setting [1] of 0.7083 ± 0.0012 and a protein stability index (genetic background: wild type) of 0.693 ± 0.024.

For the sequence KPFYYKIYRFWC [SAM3 C-terminal 12 aa], the protein stability index by setting is: under setting [1], 0.735 ± 0.024; (genetic background: wild type) 0.3886 ± 0.0019.

With KPGGSKKRKTKA [RFC1 C-terminal 12 aa], the protein stability index is 0.729 ± 0.011 under setting [1] and 0.747 ± 0.15 (genetic background: wild type).

As to KPGLTVYSIELL [SMP3 C-terminal 12 aa], the protein stability index by setting is: under setting [1], 0.6898 ± 0.0048; (genetic background: wild type) 0.692 ± 0.011.

As to KPMAYSNGGFGL [PPT1 C-terminal 12 aa], the protein stability index is, setting by setting: under setting [1], 0.674 ± 0.015; (genetic background: wild type) 0.668 ± 0.015.

For KQAQEGTKNLKI [PAC10 C-terminal 12 aa], the protein stability index is 0.714 ± 0.055 under setting [1] and 0.666 ± 0.029 (genetic background: wild type).

As to “KQRFLLCWSTKL [YHR131W-A C-terminal 12 aa]”, the protein stability index under setting [1] came out at 0.693 ± 0.034 and the protein stability index (genetic background: wild type) turned out to be 0.55 ± 0.04.

KQYSSPEICFRV [YBR134W C-terminal 12 aa] showed a protein stability index under setting [1] of 0.692 ± 0.029 and a protein stability index (genetic background: wild type) of 0.663 ± 0.014.

As for KRAENNAQKKTN [ERG25 C-terminal 12 aa], the protein stability index is 0.689 ± 0.019 under setting [1] and 0.495 ± 0.0083 (genetic background: wild type).

For the sequence KRRPYVRAHAKW [YGR051C C-terminal 12 aa], the protein stability index is, setting by setting: under setting [1], 0.7089 ± 0.0043; (genetic background: wild type) 0.698 ± 0.05.

In turn, “KRRSDSKESRKL [YPR145C-A C-terminal 12 aa]” gave a protein stability index under setting [1] of 0.713 ± 0.037 and a protein stability index (genetic background: wild type) of 0.673 ± 0.03.

The sequence KSQISVSFYRDN [YPR027C C-terminal 12 aa] came in with a protein stability index under setting [1] of 0.704 ± 0.04 and a protein stability index (genetic background: wild type) of 0.6736 ± 0.0023.

Consider KSVRIAIDKPIR [ALD5 C-terminal 12 aa], for which the protein stability index turned out to be 0.696 ± 0.026 under setting [1] and 0.666 ± 0.018 (genetic background: wild type).

With KTGKKNKVAKKN [SRP14 C-terminal 12 aa], the protein stability index runs as follows: under setting [1], 0.682 ± 0.0078; (genetic background: wild type) 0.692 ± 0.021.

For the sequence “KTHRSRSSRKGN [YMR135W-A C-terminal 12 aa]”, the protein stability index is, setting by setting: under setting [1], 0.6834 ± 0.0026; (genetic background: wild type) 0.704 ± 0.023.

KTQDYGKKYNSG [SIZ1 C-terminal 12 aa] yielded a protein stability index under setting [1] of 0.69 ± 0.018 and a protein stability index (genetic background: wild type) of 0.727 ± 0.0097.

With KTVSDEEYAYIV [APM2 C-terminal 12 aa], the protein stability index is, setting by setting: under setting [1], 0.6901 ± 0.0029; (genetic background: wild type) 0.707 ± 0.011.

Turning to KTVSPNWEVKEL [CYM1 C-terminal 12 aa], the protein stability index is, setting by setting: under setting [1], 0.6828 ± 0.0036; (genetic background: wild type) 0.702 ± 0.019.

Sequence KTYIKNDVEIFN [HBN1 C-terminal 12 aa] had a protein stability index under setting [1] of 0.715 ± 0.025 and a protein stability index (genetic background: wild type) of 0.726 ± 0.067.

Take KVNGDIYRLPPS [MBA1 C-terminal 12 aa]: the protein stability index under setting [1] came out at 0.6888 ± 0.001 and the protein stability index (genetic background: wild type) is 0.677 ± 0.0092.

Turning to KVRTQSKQPQEE [SAW1 C-terminal 12 aa], the protein stability index stood at 0.682 ± 0.021 under setting [1] and 0.673 ± 0.026 (genetic background: wild type).

KVSPADAAKKAL [RPS26A C-terminal 12 aa]: the protein stability index under setting [1] came to 0.704 ± 0.0096 and the protein stability index (genetic background: wild type) was 0.718 ± 0.02.

Sequence KVTSANEHTSAV [PEX27 C-terminal 12 aa] showed a protein stability index under setting [1] of 0.689 ± 0.011 and a protein stability index (genetic background: wild type) of 0.697 ± 0.013.

On to KWGLSKKDGRQA [SLY41 C-terminal 12 aa], for which the protein stability index worked out at 0.699 ± 0.034 under setting [1] and 0.7036 ± 0.0043 (genetic background: wild type).

In the case of KWLWRELEESSL [OCA5 C-terminal 12 aa], the protein stability index runs as follows: under setting [1], 0.745 ± 0.018; (genetic background: wild type) 0.7234 ± 0.0014.

KYKFYDDENLTE [SOL1 C-terminal 12 aa] showed a protein stability index under setting [1] of 0.72 ± 0.017 and a protein stability index (genetic background: wild type) of 0.733 ± 0.081.

In the case of KYRRQVRYTQRT [YGL052W C-terminal 12 aa], the protein stability index under setting [1] came out at 0.708 ± 0.0075 and the protein stability index (genetic background: wild type) is 0.698 ± 0.013.

Regarding KYYETVGKADII [AIM36 C-terminal 12 aa], the protein stability index runs as follows: under setting [1], 0.68805 ± 0.00047; (genetic background: wild type) 0.697 ± 0.025.

For the sequence LADAGHLWHSIT [YNL120C C-terminal 12 aa], the protein stability index was 0.746 ± 0.02 under setting [1] and 0.6128 ± 0.00091 (genetic background: wild type).

Regarding LADLRVYLRVPG [YGL088W C-terminal 12 aa], the protein stability index reads like this: under setting [1], 0.565 ± 0.021; (genetic background: wild type) 0.568 ± 0.013.

Regarding LAFIAACKKYIY [IKS1 C-terminal 12 aa], the protein stability index under setting [1] worked out at 0.696 ± 0.023 and the protein stability index (genetic background: wild type) came to 0.487 ± 0.026.

As to LAITIAALCASL [EXG2 C-terminal 12 aa], the protein stability index came to 0.55 ± 0.0069 under setting [1] and 0.572 ± 0.018 (genetic background: wild type).
